{"source": "paper PMC9995270", "about": "(Nature, 2023)", "binders": {"B1": {"name": "Flag-tagged PaLpxC (enzyme)", "chain": "MIKQRTLKNIIRATGVGLHSGEKVYLTLKPAPVDTGIVFCRTDLDPVVEIPARAENVGETTMSTTLVKGDVKVDTVEHLLSAMAGLGIDNAYVELSASEVPIMDGSAGPFVFLIQSAGLQEQEAAKKFIRIKREVSVEEGDKRAVFVPFDGFKVSFEIDFDHPVFRGRTQQASVDFSSTSFVKEVSRARTFGFMRDIEYLRSQNLALGGSVENAIVVDENRVLNEDGLRYEDEFVKHKILDAIGDLYLLGNSLIGEFRGFKSGHALNNQLLRTLIADKDAWEVVTFEDARTAPISYMRPAAAV", "notes": "LpxC of Pseudomonas aeruginosa PAO1; UniProt P47205 is printed for the covariation analysis; also called F–PaLpxC; F–LpxC; source: purified (details in the Supplementary Information)"}}, "key": {"H–PaMurA(E406K)": {"target": "T1, H–PaMurA(E406K) (P. aeruginosa, UniProt Q9HVW7 1-421, E406K)", "T1 construct": "source: purified (details in the Supplementary Information)", "test": "[…] (1:1), 25 mM Tris pH 8.0, 150 mM NaCl, 10% glycerol, 1 mM DTT, […]", "settings": "both partners purified"}, "His-tagged PaMurA": {"target": "T2, His-tagged PaMurA (P. aeruginosa, UniProt Q9HVW7 1-421)", "T2 construct": "MurA of Pseudomonas aeruginosa PAO1; UniProt Q9HVW7 is printed for the covariation analysis; also called H–PaMurA; H–PaMurA(WT); source: purified (details in the Supplementary Information)", "test": "[…] (1:1), 25 mM Tris pH 8.0, 150 mM NaCl, 10% glycerol, 1 mM DTT, […]", "settings": "both partners purified"}}, "data": [{"binder": "B1", "values": [{"measurement": "binding result", "setting": "H–PaMurA(E406K)", "result": "binds"}, {"measurement": "binding result", "setting": "His-tagged PaMurA", "result": "binds"}]}]}
